Reference: patent US20240209068A1

Tests used:
[1] = target: Clostridium difficile toxin A (purified) (Clostridium difficile) (UniProt P16154)
[2] = target: Clostridium difficile toxin A (purified) (Clostridium difficile) (UniProt P16154); test: cell-based or functional assay

Chain of Actoxumab IgA2m1 (heavy, form in doubt): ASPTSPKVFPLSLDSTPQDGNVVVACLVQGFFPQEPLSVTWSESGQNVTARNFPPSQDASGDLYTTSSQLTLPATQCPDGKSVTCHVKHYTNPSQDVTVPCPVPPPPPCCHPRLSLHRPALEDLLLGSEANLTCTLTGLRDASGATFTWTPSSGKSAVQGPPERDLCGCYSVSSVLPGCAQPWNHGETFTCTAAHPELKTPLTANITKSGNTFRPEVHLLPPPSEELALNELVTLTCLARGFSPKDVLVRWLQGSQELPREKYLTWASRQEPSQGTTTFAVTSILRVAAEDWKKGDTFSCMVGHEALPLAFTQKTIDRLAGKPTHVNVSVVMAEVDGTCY
Chain of Actoxumab IgA2m1 (P01591 whole entry, form in doubt): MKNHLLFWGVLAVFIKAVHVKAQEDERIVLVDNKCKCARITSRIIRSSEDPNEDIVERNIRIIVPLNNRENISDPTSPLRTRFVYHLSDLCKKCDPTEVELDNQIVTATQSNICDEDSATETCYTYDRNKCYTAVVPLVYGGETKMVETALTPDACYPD

Substance: Actoxumab IgA2m1 (antibody)
- IC50 (read off the curve); % neutralization of Toxin A on Vero cells (alamarBlue), curve 'Actoxumab IgA2m1 Protein' [1]: 0.03 µg/mL
- IC50 (read off the curve); % neutralization of Toxin A on Vero cells (alamarBlue), curve 'Actoxumab IgA2m1 mRNA' [1]: 0.01 µg/mL
- potency (IC50) of Toxin A neutralization on Vero cells relative to Actoxumab IgG; antibody from mRNA-transfected cell supernatant [2]: 200 fold
- potency (IC50) of Toxin A neutralization on Vero cells relative to Actoxumab IgG; recombinant antibody protein [2]: 200 fold
